From patent US10155985B2, “Evaluation of eosinophilic esophagitis” (CHILDREN'S HOSPITAL MEDICAL CENTER, priority 2004, dated 2018)

B1: SEQ_ID_#116 (nucleic acid, listed as Homo sapiens)
DNA: TGTAAGTATTTACTTTTAATTCTACTTTCAGGTGGAAAATGATGAGAACTCCTTAGGGGGTCTTTAATCTCAAGATTGTCAGTCTAGCTAAATATAATTAAAAGACTGCCTTCTGTGTTTACTGCTGAATAATGATGAGAAAAAATAGTGTAATTTTTTTAATGTTTGCTAACCAGGTTCTCCATAGACAACTTTAGTCAGTGGTCATAATATTGTAGATTTAGCTGCAAATTTAAGAGGTGAGAAAAGGAATATGTTTGTTCCTAGGTTTGTTCTAATCAGACCAATTCAAAGTTAATATTGCAAGGCTATACAACATCTATCTCATCCAAATTGTTGTTTTATAGCTTTCAAACATCCTTTTTAACTTCTCTGCTCTGCCACTCATCATTCCATTAGGGCAAAAAGAAACAAAACTTAAGCTTTGAAGCTCATTAGATACATACTTTAAAAAATAGATCAAAATAAGCAAAAAGTACAATTTGTATTATCTGCATGAGTTTCTAGTTATCAGTGACCTAAGCTAAGTCTGGCTTTTAGTAGCAAGATTTTAGCATACCAGGCTCTCAAGGGAGGTATTTCTCAGTATTATTTCAATTTTTAAAGGATAAAGACATGTTCTAATTTAAATTTATTGAAATTTGATAATCCATGTGACTTTTCAGTACTGTGCTTGGTGCTTTAGATGGAAATAGGATAAATATCTGACTCAATCATCCAGGAGTCATGATACATACTTTACAATCTGATTTA
B2: SEQ_ID_#95 (nucleic acid, listed as Homo sapiens)
DNA: TTTTTTTTTTTTTTTTGTAATAAGAAAAAATTTTAGTAAAAGAAAATTCTCACAAAGTTTTTAGTAAATGAGATTATGTTCATGAATGTGTTTGGTAAACTGTAACTCCACAGGGCAGCTCCAAGTCATGAGTGTGCAGTTGGGCTCAAACCGTACAGAAGTCATTTCCAGGATGTTATCCTTACTCTTCTAGGAGCCCACATCGCCCAGATGAGGAAGGCCACCGCTGCCGCCAACGCCGACTACCGTGAGCAGCTTCCTGCTCCCCTGTCGTCGCCTCTGCGGTCGGGGCACTTTCCCCAAAGCGCT
B3: SEQ_ID_#142 (nucleic acid, listed as Homo sapiens)
DNA: TAGAGGTTAAATGACCCCATTTGTGGGGTGGTTTATTGTTAAAATGATTAAACATGCTAAAATCACATGGAGTGGCTATTCCACTTTTGCCCTGACTCCATAGTGGGGCAAATGGGAACTACAGGAGTCACTTGGTTTGTGTGGCCTCTGGGGATGGTTAGACTTGGAGGGTTAGCGGTGAGCAGGTTAGCAAAGCCCCAAGCATCCTTCATGTAGTACACTTTTCCCAGCAGTAAAAAAATTCAGAGATTTCCCCCTTCTTCACTTTTCTTTCCTCCCTATATGTGCCCTACTTCTCATTCTCCTATGGCCCTGGAACCTCTTATGCTTCTGCCCGTTATGGTCTTAGACTAGATGATGAGGGAGGCTTTTCCTTGACACCAGCATTCCAGTCT
B4: SEQ_ID_#185 (nucleic acid, listed as Homo sapiens)
DNA: AATAATTAATGCAATTTAATGACAATAAATAAACTTCAAAGTCCCGCCAAAACCAGCAGAACCTCATCAAAGCAAAAGAAACAAGCTTCTTTCCAGCTCAGAGGTGAAGCGCTGCAGATGGCCAGTGTTTCATCTCGAGGGGAGGGTTGGGAAAGGCTGTGGAATGAGGG
B5: SEQ_ID_#19 (nucleic acid, listed as Homo sapiens)
DNA: ATGGCCTGGACCCCTCTGCTCCTCATGTTCCTCTCTCATTGCTCAGGTGAGAACTGGTTTTAGGTGTCTAGGGTTAGCTCCTTAGCTTGCGTCAGCCTCTCTGGCTCAGATCCCCAAGACATGTATCTCTAGTTCCTGCCCCAGCCCCCATGAGTGTCTGTGCTTGCAGGTTCCCTCTCCCAGCCTGTGCTGACTCAGATGACCTCACTCTCTGCATCTCCGGGAGCATGAGCCAGACTTACCTGCACCCTGAGCAGTGGCTTCAGAGTTGGTAACTTTGCAATATAGTGGTCAGCTGAAGCCAGGCAGCCGTCCCAGGTGTCTCCTGAGATACTACTCAGACTCAAATATCACTCAGCACCCTGGGGTTCCCATCCACTTCTCTGGATCCAATGATACATTAGCCAATGCAGGGATTCTGTACATTCCTGGGCTGAAGCCTGAGGGTGAGGCTATTACTGTTGTACGTGTCACAGCAGCTCCAAGT
B6: SEQ_ID_#165 (nucleic acid, listed as Homo sapiens)
DNA: CCAAAAAGTCAGTTGATATGACACAGTCACAGACAGAACAGTCAGCAGCCCAAGAAAGGTCCTCACGGCTGCTGTGCTGGGTAGCACTTGCCATCCAGTTTCTAGAGTGATGAAATGCTCTGTCTGTACCGTTCAATACAGTAGGCACTGGCACTAGCCACATGTGCCAGCTAAGCACTTGAAATGTGGCCAGTGCAATAAGGAATTGAACTTTTAATTGCATTTAATAAACTGTATGTAAATAG
B7: SEQ_ID_#1005 (nucleic acid, listed as Homo sapiens)
DNA: ATAGATTCTGCAGCATGGCAAACAGGTAATACTTAAAGCCAAATGGCGCTTCGGCTTATTTCAATACTATTTTTATGTAAAGATCAGTGTGAGAATATCAGCTCAATGGTTGAGGTTCTAGGATCAATTGCCTTGCAGTTTTTATACTAGCTTTTGATATCTTTTGCCTATTAAAACACTTTGTGAACTTTAGAATTAAGGAACTAAAAAATATTTACCATAAGTCCAAGTTATGACTTGAGGATCATATCTGATTAGAACTGTGGCAGAACTACTAGAAAAAGATTCTGCAAATTGGTTTCAGTGATTCTTGTTGATGTAATCAACAAGATTACATAATCAACAATAATAGATATTGAACCAAAATGATCCTTTTTTTAAGTTTAAGGTTATTTAGTTTCTCTTGCAAGGATATGATTTAGTCCTAATAGGGAATATGTGTATGTACTGGTGGGGAGCAGTGGGCTTGCTGCATGTATGTATGTTTTAAAATTAATAAATATTATCTTACTGGGCTCCATAGATGGTTTAAATTTAGATTTATTTAATTAAGAGGCTATAAATAATATATACACTACTGTATGGTATTTAACAAATAAGTTTTAAATCTGTTAATTCTTCTGGAAAACTTTGGATGTAGGGATGGCAAGCTAATTTTCTTGTATAGCTGGTGATATAAGCAGCATGGTCATAAAATAACATTTCTTATAAAGAC
B8: SEQ_ID_#1002 (nucleic acid, listed as Homo sapiens)
DNA: CCACCGCCTATCCCAAAACCTATAAGAACCAATGATAATCCCACTACCCTTTGATGACTCTCTTTTTGGACTCAGCCCGCCTGCACCCAGGTGAAATAAACAGCCTCGTTGCTCACACAAAGCCTGTTTGGTGGTCTCTTCACACGGACGCATGAGACATTTGGTGCCGAAGACCCGGGTCAGCGGGACTCCTTCGGGACAGCAGTCCCCTGTCCTCACCTTCACTCCCTGAAGAGATCCACCTACAACCTCAGGTCCGCAGACCAACCAGCCCAAGGAACATCTCACTGATTTTAAATTGGACTCTCTTCACACGGGCGAGTGTGACATTTGGTGCCGAAGACCCAGGACAGGAGGACTCCTTTGGGAGACCGGTCTCCTGTCCTCGCCCTCACTCCGTGAGGAGATCCACCTGCAACCTCAGGTCCTCAGACCAACCAGCCGAAGGAACATCTCACCAATTTCAAATGGGCTTAGCGGCTGAAGACTGATGCTGCCTGGTCGCCTCGGAAGCCCCCTGGACCATCATGGACGCCGAGCTTCGGGTAACTCTCACAGTGGAGGCCTGTTTGGTGACTTTCTTCGCACCGACGTGCGTGACACAATGTTTGCAGAATATGAAGGTGGCTGTCACGTGGTCTGGGCTTCCTGGAGGTTTGAGCTGGGAGCTGAAGCCCCGTAGGAGTTCTGTAAGTCAAAAGGGAAGAGAAGAGCATTCCACGTAGAGAAAAGAATCTGTGCTCCAGGCGCGGTGGCTCACGATTGTAATCTCAGCACTTGGTGTCAGGCCTCTGAGCCCAGGCTAAGCCATTGTATATCCCCCGTGACCTGCATGTATACATCCAGATGGCCTGAAGCAGCTGAAGAACCACAAGAGAAGTGAAAATAGCCAGTTCCTGCCTTAACTGATGTCATTCCACCATTGTGATTTGTTCCTGTCCCACCTTTACTGATCAATTAACTTTGTGACATTTCTTCTCCTGGACAATGAGTCTCATGATCTCCCTACCCAGCACCTTGTGACCCCTGCCCCTGCCCGCAAGAGATAACCATCTTTAACTGTAACTTTCCACTACCTACCTAAATCCTGTAAAAACTGACCCACCCCCTATCTCCCTTTGCTGACTCCTTTTTCGGACTCAGCCCGCCTGCACCCAGGTGATTAAAAAGCTTTATTGTTCACATG
B9: SEQ_ID_#1069 (nucleic acid, listed as Homo sapiens)
DNA: GCCGCCTCCTCCTGGGCTGGGCCCGCGGTGTCTCGTCCCCTCGCGGAGCCGCTCCTGCCGCCGCCGCCGCCGCCTCCTCATTCATCCTCGTGCACCATAGGCGGCACAGGCACCAAGATGTCCAACCGAGTGGTCTGCCGAGAAGCCAGTCACGCCGGGAGCTGGTACACAGCCTCAGGACCGCAGCTGAATGCACAGCTAGAAGGTTGGCTTTCACAAGTACAGTCTACAAAAAGACCTGCTAGAGCCATTATTGCCCCCCATGCAGGATATACGTACTGTGGGTCTTGTGCTGCCCATGCTTATAAACAAGTGGATCCGTCTATTACCCGGAGAATTTTCATCCTTGGGCCTTCTCATCATGTGCCCCTCTCTCGATGTGCACTTTCCAGTGTGGATATATATAGGACACCTCTGTATGACCTTCGTATTGACCAAAAGATTTACGGAGAACTGTGGAAGACAGGAATGTTTGAACGCATGTCTCTGCAGACAGATGAAGATGAACACAGTATTGAAATGCATTTGCCTTATACAGCTAAAGCCATGGAAAGCCATAAGGATGAGTTTACCATTATTCCTGTACTGGTTGGAGCTCTGAGTGAGTCAAAAGAACAGGAATTCGGAAAACTCTTCAGTAAATATCTAGCGGATCCTAGTAATCTCTTTGTGGTTTCTTCTGATTTCTGCCATTGGGGTCAAAGGTTCCGTTACAGTTACTATGATGAATCCCAGGGGGAGATTTATAGATCCATTGAACATCTAGATAAAATGGGTATGAGTATTATAGAACAATTAGACCCTGTATCTTTTAGCAATTACTTGAAGAAATACCATAATACTATATGTGGAAGACATCCCATTGGGGTGTTATTAAATGCTATCACAGAGCTCCAGAAGAATGGAATGAATATGAGTTTTTCGTTTTTGAATTATGCCCAGTCGAGCCAGTGTAGAAACTGGCAAGACAGTTCAGTGAGTTATGCAGCTGGAGCACTCACGGTCCACTGAAGCTCTGAATCCTCAGGGATGCCACCTGCACATTCTCATACTCTGTCCGGGGTCCCAGCCTAGCCTTTACCACGATACTGGTCCTGGTTTGGGGGGATTCTGAAACCTCAAACTAATAGAACTTTCTTCTCTTTTTTTCTAGTAGGTGTAGTCCTTCCTTAATTTCAACTCATTAAAAAATGCTTTATAGTTTAGGGCAGTGGAAGGAAGGCTGGCATCAAAATATTTTGATCAAAAAAGATGACAATGTAAAGGCTCAGTTGTGGCAGACAGTTTTTT

Tested on: EE transcriptome
Assay: Genome-wide microarray transcript profiling of esophageal biopsies, EE patients vs normal individuals (EE transcriptome)
Settings: transcript level in esophageal biopsies of EE patients (n=76) compared to normal individuals (n=13); Affymetrix Human Genome U133 plus 2; p<0.01
Summary of the method: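 Distal esophageal biopsies from EE patients (n=76; >24 eosinophils/hpf, basal hyperplasia) and normal controls (n=13; 0 eosinophils/hpf) profiled on Affymetrix Human Genome U133 plus 2 chips. Expression by absolute call and average difference, global scaling; transcriptome genes defined as p<0.01 (Welch t-test) and ≥1.5-fold change.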

Molecule	Fold Change
B1	3.363
B2	3.633
B3	2.896
B4	2.62
B5	10.29
B6	2.732

Same assay, conditions: transcript level in esophageal biopsies of EE patients compared to normal individuals (NL); Affymetrix Human Genome U133 plus 2; p<0.01; >1 up-regulated, <1 down-regulated

Molecule	Fold Change
B7	0.61
B8	0.612
B9	0.587
